Results: US20030096403A1

Molecular target: surface antigen S of hepatitis B virus (Greencross Co.) (hepatitis B virus)
Assay: competitive ELISA: antibody pre-incubated with soluble surface antigen S, then plate coated with surface antigen S

Ka: 4e+09 M⁻¹
B1: humanized antibody HzS-III (antibody, V domains shown)
VH: EVQLVQSGAEVKKPGASVKVSCKASGYTFTDYNVQWVRQAPGKSLEWMGYIYPYSGGTGYSQKFQGRVTLTVDNSASTAYMELSSLRSEDTAVYYCARNYGYDSSAYWGQGTLVTVSS
VL: DIVLTQSPASLAVSPGQRATITCRASESVSNYGINFINWFQQKPGQPPKLLIYTASNKGTGVPARFSGSGSGTDFTLTINPVEAEDTANYFCQQSKEVPYTFGGGTKVEIKR
